The chains are these.
B1: flag-tag-ERN1cyt-gp130 (other)
chain: MDYKDDDDKISEFFCPKDVLGHGAEGTIVYRGMFDNRDVAVKRILPECFSFADREVQLLRESDEHPNVIRYFCTEKDRQFQYIAIELCAATLQEYVEQKDFAHLGLEPITLLQQTTSGLAHLHSLNIVHRDLKPHNILISMPNAHGKIKAMISDFGLCKKLAVGRHSFSRRSGVPGTEGWIAPEMLSEDCKENPTYTVDIFSAGCVFYYVISEGSHPFGKSLQRQANILLGACSLDCLHPEKHEDVIARELIEKMIAMDPQKRPSAKHVLKHPFFWSLEKQLQFFQDVSDRIEKESLDGPIVKQLERGGRAVVKMDWRENITVPLQTDLRKFRTYKGGSVRDLLRAMRNKKHHYRELPAEVRETLGSLPDDFVCYFTSRFPHLLAHTYRAMELCSHERLFQPYYFHEPPEPQPPVTPDALPSRGSGGSGGSTVVHSGYRHQVPSVQVFSRSESTQPLLDSEERPEDLQLVDHVDGGDGILPRQQYFKQNCSQHESSPDISHFERSKQVSSVNEEDFVRLKQQISDHISQSCGSGQMKMFQEVSAADAFGPGTEGQVERFETVGMEAATDEGMPKSYLPQTVRQGGYMPQGGSELSTSLYKKAGYLPQTVRQGGYMPQ
notes: also called pMG2C-ERN1cyt; gp130 fusion containing only the cytoplasmic portion of ERN1
B2: flag tag-gp130-VAMP1 (other)
chain: MDYKDDDDKISTVVHSGYRHQVPSVQVFSRSESTQPLLDSEERPEDLQLVDHVDGGDGILPRQQYFKQNCSQHESSPDISHFERSKQVSSVNEEDFVRLKQQISDHISQSCGSGQMKMFQEVSAADAFGPGTEGQVERFETVGMEAATDEGMPKSYLPQTVRQGGYMPQGGSELSTSLYKKVGMSAPAQPPAEGTEGTAPGGGPPGPPPNMTSNRRLQQTQAQVEEVVDIIRVNVDKVLERDQKLSELDDRADALQAGASQFESSAAKLKRKYWWKNCKMMIMLGAICAIIVVVIVSKYRCPTFLYKVV
notes: also called pMG1-VAMP1; VAMP1 gp130 fusion construct
B3: flag tag-ERN1-gp130 (other)
chain: IFGSTSTVTLPETLLFVSTLDGSLHAVSKRTGSIKWTLKEDPVLQVPTHVEEPAFLPDPNDGSLYTLGSKNNEGLTKLPFTIPELVQASPCRSSDGILYMGKKQDIWYVIDLLTGEKQQTLSSAFADSLCPSTSLLYLGRTEYTITMYDTKTRELRWNATYFDYAASLPEDDVDYKMSHFVSNGDGLVVTVDSESGDVLWIQNYASPVVAFYVWQREGLRKVMHINVAVETLRYLTFMSGEVGRITKWKYPFPKETEAKSKLTPTLYVGKYSTSLYASPSMVHEGVAVVPRGSTLPLLEGPQTDGVTIGDKGECVITPSTDVKFDPGLKSKNKLNYLRNYWLLIGHHETPLSASTKMLERFPNNLPKHRENVIPADSEKKSFEEVINLVDQTSENAPTTVSRDVEEKPAHAPARPEAPVDSMLKDMATIILSTFLLIGWVAFIITYPLSMHQQQQLQHQQFQKELEKIQLLQQQQQQLPFHPPGDTAQDGELLDTSGPYSESSGTSSPSTSPRASNHSLCSGSSASKAGSSPSLEQDDGDEETSVVIVGKISFCPKDVLGHGAEGTIVYRGMFDNRDVAVKRILPECFSFADREVQLLRESDEHPNVIRYFCTEKDRQFQYIAIELCAATLQEYVEQKDFAHLGLEPITLLQQTTSGLAHLHSLNIVHRDLKPHNILISMPNAHGKIKAMISDFGLCKKLAVGRHSFSRRSGVPGTEGWIAPEMLSEDCKENPTYTVDIFSAGCVFYYVISEGSHPFGKSLQRQANILLGACSLDCLHPEKHEDVIARELIEKMIAMDPQKRPSAKHVLKHPFFWSLEKQLQFFQDVSDRIEKESLDGPIVKQLERGGRAVVKMDWRENITVPLQTDLRKFRTYKGGSVRDLLRAMRNKKHHYRELPAEVRETLGSLPDDFVCYFTSRFPHLLAHTYRAMELCSHERLFQPYYFHEPPEPQPPVTPDALSRGSGGSGGSTVVHSGYRHQVPSVQVFSRSESTQPLLDSEERPEDLQLVDHVDGGDGILPRQQYFKQNCSQHESSPDISHFERSKQVSSVNEEDFVRLKQQISDHISQSCGSGQMKMFQEVSAADAFGPGTEGQVERFETVGMEAATDEGMPKSYLPQTVRQGGYMPQGGSELSTSLYKKAGYLPQTVRQGGYMPQ
notes: Fusion protein expressed in transfected HEK293-T cells; also called ERN1-gp130 fusion construct; pMG2C-ERN1
B4: ERN1-Tyk2(C)-HA (other)
chain: IFGSTSTVTLPETLLFVSTLDGSLHAVSKRTGSIKWTLKEDPVLQVPTHVEEPAFLPDPNDGSLYTLGSKNNEGLTKLPFTIPELVQASPCRSSDGILYMGKKQDIWYVIDLLTGEKQQTLSSAFADSLCPSTSLLYLGRTEYTITMYDTKTRELRWNATYFDYAASLPEDDVDYKMSHFVSNGDGLVVTVDSESGDVLWIQNYASPVVAFYVWQREGLRKVMHINVAVETLRYLTFMSGEVGRITKWKYPFPKETEAKSKLTPTLYVGKYSTSLYASPSMVHEGVAVVPRGSTLPLLEGPQTDGVTIGDKGECVITPSTDVKFDPGLKSKNKLNYLRNYWLLIGHHETPLSASTKMLERFPNNLPKHRENVIPADSEKKSFEEVINLVDQTSENAPTTVSRDVEEKPAHAPARPEAPVDSMLKDMATIILSTFLLIGWVAFIITYPLSMHQQQQLQHQQFQKELEKIQLLQQQQQQLPFHPPGDTAQDGELLDTSGPYSESSGTSSPSTSPRASNHSLCSGSSASKAGSSPSLEQDDGDEETSVVIVGKISFCPKDVLGHGAEGTIVYRGMFDNRDVAVKRILPECFSFADREVQLLRESDEHPNVIRYFCTEKDRQFQYIAIELCAATLQEYVEQKDFAHLGLEPITLLQQTTSGLAHLHSLNIVHRDLKPHNILISMPNAHGKIKAMISDFGLCKKLAVGRHSFSRRSGVPGTEGWIAPEMLSEDCKENPTYTVDIFSAGCVFYYVISEGSHPFGKSLQRQANILLGACSLDCLHPEKHEDVIARELIEKMIAMDPQKRPSAKHVLKHPFFWSLEKQLQFFQDVSDRIEKESLDGPIVKQLERGGRAVVKMDWRENITVPLQTDLRKFRTYKGGSVRDLLRAMRNKKHHYRELPAEVRETLGSLPDDFVCYFTSRFPHLLAHTYRAMELCSHERLFQPYYFHEPPEPQPPVTPDALAAAGGSITQLSHLGQGTRTNVYEGRLRVEGSGDPEEGKMDDEDPLVPGRDRGQELRVVLKVLDPSHHDIALAFYETASLMSQVSHTHLAFVHGVCVRGPENSMVTEYVEHGPLDVWLRRERGHVPMAWKMVVAQQLASALSYLENKNLVHGNVCGRNILLARLGLAEGTSPFIKLSDPGVGLGALSREERVERIPWLAPECLPGGANSLSTAMDKWGFGATLLEICFDGEAPLQSRSPSEKEHFYQRQHRLPEPSCPQLATLTSQCLTYEPTQRPSFRTILRDLTRVQPHNLADVLTVNRDSPAVGPTTFHKRYLKKIRDLGEGHFGKVSLYCYDPTNDGTGEMVAVKALKADCGPQHRSGWKQEIDILRTLYHEHIIKYKGCCEDQGEKSLQLVMEYVPLGSLRDYLPRHSIGLAQLLLFAQQICEGMAYLHAHDYIHRDLAARNVLLDNDRLVKIGDFGLAKAVPEGHEYYRVREDGDSPVFWYAPECLKEYKFYYASDVWSFGVTLYELLTHCDSSQSPPTKFLELIGIAQGQMTVLRLTELLERGERLPRPDKCPCEVYHLMKNCWETEASFRPTFENLIPILKTVHEKYQGQAPSVFSVCLEYPYDVPDYA
notes: Fusion protein expressed in transfected HEK293-T cells; also called ERN1-Tyk2-HA; ERN1-Tyk2(C) fusion construct

For the assay “ERN1-Tyk2(C)-HA”, the target named is B4. The experiment in a line: luciferase reporter interaction assay in HEK293-T cells, tunicamycin 0-0.04-0.2-1-5 µg/ml.
Method: After transfection, cells were treated with 0-0.04-0.2-1-5 μg/ml tunicamycin, final concentration. The luciferase data are presented as fold induction relative to the signal obtained in cells transfected with unfused gp130 (empty prey; transfection a) and treated with the same concentration tunicamycin. Expression of the different fusion proteins was confirmed using Western blot.
Another assay concerns the target T1, HA-Tyk2(C)-SERT (human).
T1 construct: Fusion protein expressed in transfected HEK293-T cells; also called pSVSport-HA-Tyk2(C)-SERT; SERT kinase fusion construct
The experiment in a line: luciferase reporter interaction assay in HEK293-T cells.

The next assay concerns the target T2, HA-Tyk2(C)-RTp66 (HIV-1).
T2 construct: also called pSVSport-HA-Tyk2(C)-RTp66; RTp66 kinase fusion construct
Described as above.

In the next assay the target is T3, ERN1(K599A)-Tyk2(C)-HA (human).
T3 construct: also called pcDNA5/FRT/TO-ERN1(K599A)-Tyk2(C)-HA
The experiment in a line: luciferase reporter interaction assay in HEK293-T cells, vehicle or 1 µg/ml tunicamycin. (In general: In a reporter assay the amount or activity of a reporter protein is the signal.)

The next assay concerns the target T4, ERN1(D123P)-Tyk2(C)-HA (human).
T4 construct: Mutation in the luminal domain of ERN1; also called pcDNA5/FRT/TO-ERN1(D123P)-Tyk2(C)-HA; ERN1(D123P)-Tyk2(K)-HA
The description is as above.

Assay [1] addresses T5, unfused gp130 receptor fragment (pMG1) (human, UniProt P40189 760-918).
T5 construct: Negative control prey; also called empty prey
T5 sequence: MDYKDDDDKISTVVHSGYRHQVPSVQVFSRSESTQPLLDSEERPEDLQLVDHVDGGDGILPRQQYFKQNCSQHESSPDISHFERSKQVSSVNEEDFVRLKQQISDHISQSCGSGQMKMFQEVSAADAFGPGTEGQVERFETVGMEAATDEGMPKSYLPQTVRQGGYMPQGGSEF
The experiment in a line: luciferase reporter interaction assay in HEK293-T cells, tunicamycin 0-0.5-1-2 µg/ml.
Method: In a first experiment, cells were transfected with the following combinations of plasmids (500 ng of the kinase fusion construct, 100 ng of the gp130 fusion construct and 50 ng of the luciferase reporter construct) according to the methods described above:
After transfection, cells were treated with 0-0.5-1-2 μg/ml tunicamycin, final concentration.

Method for ERN1(D123P)-Tyk2(C)-HA: (§1) After transfection, cells were either vehicle (DMSO) treated or treated with 1 μg/ml tunicamycin (final concentration).
Method for ERN1(K599A)-Tyk2(C)-HA: as §1

Regarding B1, in the assay with ERN1-Tyk2(C)-HA, the binding result is reported as “no binding”.

For B2, the binding result with HA-Tyk2(C)-SERT was “binds”; with HA-Tyk2(C)-RTp66, “no binding”.

For the molecule B3, the binding result in the assay with ERN1(K599A)-Tyk2(C)-HA and with ERN1(D123P)-Tyk2(C)-HA was “no binding” each time. As for B4, in assay [1], the binding result is recorded as “no binding”.

(Values after patent US20190330310A1 (VIB VZW, published 2019).)
